Consider five sequences from the supplement of paper PMC5998384.

The subject of data set [1] is HeLa Kyoto. The experiment in a line: solubility in G1/S (NP-40 vs SDS abundance) (log2 ratio); higher = more soluble. To be noted: cell cycle stage: G1/S.
Data set [2] relates to HeLa Kyoto. The experiment in a line: melting temperature (median over replicates), in situ; higher = more thermally stable.
In data set [3] the test system is HeLa Kyoto. Kind of data set: solubility change mitosis vs G1/S (difference of NP-40 vs SDS log2 ratios) (log2 ratio difference); higher = more soluble in mitosis.
Data set [4] relates to HeLa Kyoto. Kind of data set: thermal stability score vs G1/S (z-score of summed log2 fold changes over temperatures); higher = more thermally stable than in G1/S.
The mark [5] stands for this setting: cell cycle stage: early G1 (4.5 h after nocodazole release).
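Wherever melting temperature (median over replicates), in situ is given: HeLa Kyoto cells synchronized by double thymidine or nocodazole block, proteins quantified by TMT10plex mass spectrometry, three independent biological replicates.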
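Wherever solubility change mitosis vs G1/S (difference of NP-40 vs SDS log2 ratios) is given: synchronized HeLa Kyoto cells (double thymidine block for G1/S, nocodazole release for mitosis), protein amounts in NP-40 versus SDS lysates quantified by mass spectrometry, three biological replicates.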
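Wherever solubility in G1/S (NP-40 vs SDS abundance) is given: HeLa Kyoto cells arrested at G1/S by double thymidine block, proteins quantified by TMT10plex mass spectrometry in mild NP-40 versus SDS extracts, three biological replicates.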
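Wherever thermal stability score vs G1/S (z-score of summed log2 fold changes over temperatures) is given: synchronized HeLa Kyoto cells, proteins quantified by TMT10plex mass spectrometry, three biological replicates, mitosis taken 0.5 h after nocodazole release, G1/S directly after double thymidine block.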

Take “MAAAALRRFWSRRRAEAGDAVVAKPGVWARLGSWARALLRDYAEACRDASAEARARPGRAAVYVGLLGGAAACFTLAPSEGAFEEALLEASGTLLLLAPATRNRESEAFVQRLLWLRGRGRLRYVNLGLCSLVYEAPFDAQASLYQARCRYLQPRWTDFPGRVLDVGFVGRWWVLGAWMRDCDINDDEFLHLPAHLRVVGPQQLHSETNERLFDEKYKPVVLTDDQVDQALWEEQVLQKEKKDRLALSQAHSLVQAEAPR [C19ORF52]”: the “solubility in G1/S (log2)” value in data set [1] is -0.131. The melting temperature in data set [2] (cell cycle stage: G1/S) came to 53.5 °C; in data set [2] (cell cycle stage: mitosis), 53.8 °C. In data set [3], the “solubility change mitosis (log2)” value is -0.13. Also, the thermal stability score was 0.683 in data set [4] (setting [5]) and 0.243 in data set [4] (cell cycle stage: mitosis).

For “MAAAAQLSLTQLSSGNPVYEKYYRQVDTGNTGRVLASDAAAFLKKSGLPDLILGKIWDLADTDGKGILNKQEFFVALRLVACAQNGLEVSLSSLNLAVPPPRFHDTSSPLLISGTSAAELPWAVKPEDKAKYDAIFDSLSPVNGFLSGDKVKPVLLNSKLPVDILGRVWELSDIDHDGMLDRDEFAVAMFLVYCALEKEPVPMSLPPALVPPSKRKTWVVSPAEKAKYDEIFLKTDKDMDGFVSGLEVREIFLKTGLPSTLLAHIWSLCDTKDCGKLSKDQFALAFHLISQKLIKGIDPPHVLTPEMIPPSDRASLQKNIIGSSPVADFSAIKELDTLNNEIVDLQREKNNVEQDLKEKEDTIKQRTSEVQDLQDEVQRENTNLQKLQAQKQQVQELLDELDEQKAQLEEQLKEVRKKCAEEAQLISSLKAELTSQESQISTYEEELAKAREELSRLQQETAELEESVESGKAQLEPLQQHLQDSQQEISSMQMKLMEMKDLENHNSQLNWCSSPHSILVNGATDYCSLSTSSSETANLNEHVEGQSNLESEPIHQESPARSSPELLPSGVTDENEVTTAVTEKVCSELDNNRHSKEEDPFNVDSSSLTGPVADTNLDFFQSDPFVGSDPFKDDPFGKIDPFGGDPFKGSDPFASDCFFRQSTDPFATSSTDPFSAANNSSITSVETLKHNDPFAPGGTVVAASDSATDPFASVFGNESFGGGFADFSTLSKVNNEDPFRSATSSSVSNVVITKNVFEETSVKSEDEPPALPPKIGTPTRPCPLPPGKRSINKLDSPDPFKLNDPFQPFPGNDSPKEKDPEIFCDPFTSATTTTNKEADPSNFANFSAYPSEEDMIEWAKRESEREEEQRLARLNQQEQEDLELAIALSKSEISEA [EPS15]”, in data set [1], the “solubility in G1/S (log2)” value came to 0.2. The melting temperature was 51 °C in data set [2] (cell cycle stage: G1/S) and 51.5 °C in data set [2] (cell cycle stage: mitosis). Moreover, in data set [3], the “solubility change mitosis (log2)” value is -0.117. Further, the results for the thermal stability score in data set [4] (setting [5]) and in data set [4] (cell cycle stage: mitosis) were 0.399 and 1.19, respectively.

On to “MAAAAVSESWPELELAERERRRELLLTGPGLEERVRAAGGQLPPRLFTLPLLHYLEVSGCGSLRAPGPGLAQGLPQLHSLVLRRNALGPGLSPELGPLPALRVLDLSGNALEALPPGQGLGPAEPPGLPQLQSLNLSGNRLRELPADLARCAPRLQSLNLTGNCLDSFPAELFRPGALPLLSELAAADNCLRELSPDIAHLASLKTLDLSNNQLSEIPAELADCPKLKEINFRGNKLRDKRLEKMVSGCQTRSILEYLRVGGRGGGKGKGRAEGSEKEESRRKRRERKQRREGGDGEEQDVGDAGRLLLRVLHVSENPVPLTVRVSPEVRDVRPYIVGAVVRGMDLQPGNALKRFLTSQTKLHEDLCEKRTAATLATHELRAVKGPLLYCARPPQDLKIVPLGRKEAKAKELVRQLQLEAEEQRKQKKRQSVSGLHRYLHLLDGNENYPCLVDADGDVISFPPITNSEKTKVKKTTSDLFLEVTSATSLQICKDVMDALILKMAEMKKYTLENKEEGSLSDTEADAVSGQLPDPTTNPSAGKDGPSLLVVEQVRVVDLEGSLKVVYPSKADLATAPPHVTVVR [LRRC47]”, for which the “solubility in G1/S (log2)” value in data set [1] turned out to be 0.238. Further, the results for the melting temperature in data set [2] (cell cycle stage: G1/S) and in data set [2] (cell cycle stage: mitosis) were 53 °C and 52.2 °C, respectively. The “solubility change mitosis (log2)” value in data set [3] was 0.0172. Besides, the thermal stability score in data set [4] (setting [5]) was -0.334; in data set [4] (cell cycle stage: mitosis), -1.47.

Consider “MAAAAWLQVLPVILLLLGAHPSPLSFFSAGPATVAAADRSKWHIPIPSGKNYFSFGKILFRNTTIFLKFDGEPCDLSLNITWYLKSADCYNEIYNFKAEEVELYLEKLKEKRGLSGKYQTSSKLFQNCSELFKTQTFSGDFMHRLPLLGEKQEAKENGTNLTFIGDKTAMHEPLQTWQDAPYIFIVHIGISSSKESSKENSLSNLFTMTVEVKGPYEYLTLEDYPLMIFFMVMCIVYVLFGVLWLAWSACYWRDLLRIQFWIGAVIFLGMLEKAVFYAEFQNIRYKGESVQGALILAELLSAVKRSLARTLVIIVSLGYGIVKPRLGVTLHKVVVAGALYLLFSGMEGVLRVTGAQTDLASLAFIPLAFLDTALCWWIFISLTQTMKLLKLRRNIVKLSLYRHFTNTLILAVAASIVFIIWTTMKFRIVTCQSDWRELWVDDAIWRLLFSMILFVIMVLWRPSANNQRFAFSPLSEEEEEDEQKEPMLKESFEGMKMRSTKQEPNGNSKVNKAQEDDLKWVEENVPSSVTDVALPALLDSDEERMITHFERSKME [TMEM87A]”, for which the “solubility in G1/S (log2)” value in data set [1] was -0.0314. Moreover, the figures for the melting temperature in data set [2] (cell cycle stage: G1/S) and in data set [2] (cell cycle stage: mitosis) were 59 °C and 60.5 °C, respectively. The “solubility change mitosis (log2)” value in data set [3] is -0.117. The thermal stability score was -4.37 in data set [4] (setting [5]) and -3.56 in data set [4] (cell cycle stage: mitosis).

As for “MAAAEEEPKPKKLKVEAPQALRENILFGMGNPLLDISAVVDKDFLDKYSLKPNDQILAEDKHKELFDELVKKFKVEYHAGGSTQNSIKVAQWMIQQPHKAATFFGCIGIDKFGEILKRKAAEAHVDAHYYEQNEQPTGTCAACITGDNRSLIANLAAANCYKKEKHLDLEKNWMLVEKARVCYIAGFFLTVSPESVLKVAHHASENNRIFTLNLSAPFISQFYKESLMKVMPYVDILFGNETEAATFAREQGFETKDIKEIAKKTQALPKMNSKRQRIVIFTQGRDDTIMATESEVTAFAVLDQDQKEIIDTNGAGDAFVGGFLSQLVSDKPLTECIRAGHYAASIIIRRTGCTFPEKPDFH [ADK]”, the “solubility in G1/S (log2)” value in data set [1] is 0.242. Besides, the melting temperature in data set [2] (cell cycle stage: G1/S) was determined as 56.3 °C; in data set [2] (cell cycle stage: mitosis), 56.9 °C. Moreover, the “solubility change mitosis (log2)” value in data set [3] was -0.112. Also, the figures for the thermal stability score in data set [4] (setting [5]) and in data set [4] (cell cycle stage: mitosis) were 1.79 and 2.86, respectively.
